According to patent EP4299124A1 (UNIVERSITE DE MONTPELLIER, dated 2024):

Experiments:
[1] = molecular target: T1, rat mGlu2 SNAP-tagged receptor (rat, UniProt P31421 19-872, SNAP tag labelled with SNAP-Lumi4-Tb); test: cell-based or functional assay
[2] = molecular target: T1, rat mGlu2 SNAP-tagged receptor; test: TR-FRET on HEK-293 cells with SNAP-tagged rat mGlu2, anti-6His-d2; active conformation
[3] = molecular target: T1, rat mGlu2 SNAP-tagged receptor; test: TR-FRET on HEK-293 cells with SNAP-tagged rat mGlu2, anti-6His-d2; inactive conformation

T1 sequence (P31421 19-872): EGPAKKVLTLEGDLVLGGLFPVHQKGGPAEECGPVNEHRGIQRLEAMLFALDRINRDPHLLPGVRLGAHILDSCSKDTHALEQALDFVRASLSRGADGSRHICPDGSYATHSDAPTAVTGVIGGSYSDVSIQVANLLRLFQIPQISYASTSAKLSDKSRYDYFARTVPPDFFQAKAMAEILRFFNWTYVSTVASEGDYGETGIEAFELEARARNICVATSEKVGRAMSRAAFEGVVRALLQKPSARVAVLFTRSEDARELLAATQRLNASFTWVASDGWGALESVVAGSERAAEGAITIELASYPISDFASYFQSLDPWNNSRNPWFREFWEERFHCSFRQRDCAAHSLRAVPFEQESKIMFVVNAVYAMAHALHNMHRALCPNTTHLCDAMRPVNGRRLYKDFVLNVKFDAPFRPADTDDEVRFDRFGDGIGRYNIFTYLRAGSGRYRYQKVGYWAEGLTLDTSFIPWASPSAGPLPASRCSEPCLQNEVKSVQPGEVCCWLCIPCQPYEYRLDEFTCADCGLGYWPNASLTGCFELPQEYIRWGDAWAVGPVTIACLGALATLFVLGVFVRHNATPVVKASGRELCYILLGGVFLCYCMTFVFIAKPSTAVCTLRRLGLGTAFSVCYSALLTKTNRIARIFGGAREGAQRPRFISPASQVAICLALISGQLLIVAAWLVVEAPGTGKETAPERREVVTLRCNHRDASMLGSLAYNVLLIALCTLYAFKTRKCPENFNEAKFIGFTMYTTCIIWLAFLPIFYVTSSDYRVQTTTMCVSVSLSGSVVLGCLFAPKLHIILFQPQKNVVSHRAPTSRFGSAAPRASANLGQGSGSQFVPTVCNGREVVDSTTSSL

Row | Binder | PAM effect G protein coupling, pEC50 [1] [pEC50] | pKd [2] [pKd] | pKd [3] [pKd]
1 | IGF-1262 (IGF-1168 HcAb IGF-1168) (VHH, Used His-tagged in the assay) QVQLVQSGGGLVQAGGSLRLSCAASVRFFSINTMGWYRQAPGKQRELVADITSSGSTNYADSGKGRFTISRDNAKNTVYLQMNRLKPEDTAVYYCHADYKYTTHNTAWGQGTQVTVSSEPKIPQPQPKPQPQPQPQPQPKPQPKPEPQVQLVQSGGGLVQAGGSLRLSCAASVRFFSINTMGWYRQAPGKQRELVADITSSGSTNYADSGKGRFTISRDNAKNTVYLQMNRLKPEDTAVYYCHADYKYTTHNTAWGQGTQVTVSS | 7.2 | 8.23 | 
2 | IGF-1251 (IGF-1159 GS IGF-1168) (bispecific antibody) QVQLVQSGGGLVQAGGSLRLSCAASGRTFSSFAMAWFRQAPGKEREFVAAISWSGSTGHADSVKGRFTITRDNAKNTVFLQMNSLKPEDTAVYYCALGKGSSYYYSPSGYDYWGQGTQVTVSSGGGGSGGGGSGGGGSQVQLVQSGGGLVQAGGSLRLSCAASVRFFSINTMGWYRQAPGKQRELVADITSSGSTNYADSGKGRFTISRDNAKNTVYLQMNRLKPEDTAVYYCHADYKYTTHNTAWGQGTQVTVSS | 7.65 | 8.99 | 8.54
3 | IGF-1201 (IGF-1168 GS IGF-1159) (bispecific antibody) QVQLVQSGGGLVQAGGSLRLSCAASVRFFSINTMGWYRQAPGKQRELVADITSSGSTNYADSGKGRFTISRDNAKNTVYLQMNRLKPEDTAVYYCHADYKYTTHNTAWGQGTQVTVSSGGGGSGGGGSGGGGSQVQLVQSGGGLVQAGGSLRLSCAASGRTFSSFAMAWFRQAPGKEREFVAAISWSGSTGHADSVKGRFTITRDNAKNTVFLQMNSLKPEDTAVYYCALGKGSSYYYSPSGYDYWGQGTQVTVSS | 8.25 | 9.34 | 8.95
4 | IGF-1252 (IGF-1159 HcAb IGF-1168) (bispecific antibody) QVQLVQSGGGLVQAGGSLRLSCAASGRTFSSFAMAWFRQAPGKEREFVAAISWSGSTGHADSVKGRFTITRDNAKNTVFLQMNSLKPEDTAVYYCALGKGSSYYYSPSGYDYWGQGTQVTVSSEPKIPQPQPKPQPQPQPQPQPKPQPKPEPQVQLVQSGGGLVQAGGSLRLSCAASVRFFSINTMGWYRQAPGKQRELVADITSSGSTNYADSGKGRFTISRDNAKNTVYLQMNRLKPEDTAVYYCHADYKYTTHNTAWGQGTQVTVSS | 7.94 | 8.77 | 8.49
5 | IGF-1159 nanobody (VHH) VHH: QVQLVQSGGGLVQAGGSLRLSCAASGRTFSSFAMAWFRQAPGKEREFVAAISWSGSTGHADSVKGRFTITRDNAKNTVFLQMNSLKPEDTAVYYCALGKGSSYYYSPSGYDYWGQGTQVTVSS | 6.96 | 8.46 | 
6 | biparatopic IGF1202 (construct IGF1168-linker sequence L1-IGF1159) (bispecific antibody) QVQLVQSGGGLVQAGGSLRLSCAASVRFFSINTMGWYRQAPGKQRELVADITSSGSTNYADSGKGRFTISRDNAKNTVYLQMNRLKPEDTAVYYCHADYKYTTHNTAWGQGTQVTVSSEPKIPQPQPKPQPQPQPQPQPKPQPKPEPQVQLVQSGGGLVQAGGSLRLSCAASGRTFSSFAMAWFRQAPGKEREFVAAISWSGSTGHADSVKGRFTITRDNAKNTVFLQMNSLKPEDTAVYYCALGKGSSYYYSPSGYDYWGQGTQVTVSSLEHHHHHH | 8.81 | 9.27 | 8.87
7 | IGF-1261 (IGF-1168 GS IGF-1168) (VHH, Used His-tagged in the assay) QVQLVQSGGGLVQAGGSLRLSCAASVRFFSINTMGWYRQAPGKQRELVADITSSGSTNYADSGKGRFTISRDNAKNTVYLQMNRLKPEDTAVYYCHADYKYTTHNTAWGQGTQVTVSSGGGGSGGGGSGGGGSQVQLVQSGGGLVQAGGSLRLSCAASVRFFSINTMGWYRQAPGKQRELVADITSSGSTNYADSGKGRFTISRDNAKNTVYLQMNRLKPEDTAVYYCHADYKYTTHNTAWGQGTQVTVSS | 7.62 | 8.51 | 
